Results from patent US20250137032A1, “TWO-COMPONENT SYSTEMS FOR USE IN CELL-FREE GENE EXPRESSION” (priority 2023, published 2025).
“Also recorded” adds a separate entry of the source.

Biological target: T1, NarX (Escherichia coli, UniProt P0AFA2, T450I/V366A)
T1 construct: All genes were; made in house; host or cells: cell-free expression in situ, myTXTL E. coli extract (Arbor Biosciences), with synthetic lipid vesicles
Experiment: Cell-free NarX-L system encapsulated in giant unilamellar vesicles
Type: biochemical, E. coli
Settings: GUV-encapsulated NarX-L, nitrate dependent signaling (FIG. 16)
Text: Over the last decade, many promising cell-free systems have been developed, enabling the delivery and sensing of a wide array of ligands in non-ideal environments. Cell-free systems have been encapsulated and administered to mice (47), lyophilized and used in resource limited settings (6, 7), and integrated into wearable materials to sense environmental contaminants (8). Towards the goal of creating cell-mimetic particles which can sense environmental stimuli in complex environments, such as the body, we encapsulated our cell-free system into giant unilamellar vesicles using the emulsion transfer method (FIG. 5A). We encapsulated cell-free extract containing plasmids encoding NarX, NarL, and the downstream protein (luciferase or mEGFP) into membranes composed of 1 POPC: 1 cholesterol and a rhodamine conjugated lipid. We hypothesized that by encapsulating cell-free reaction components into vesicles, NarX could insert into membranes and initiate signaling in response to exogenously added nitrate. […]
For samples containing the luciferase plasmid, 0.5 μL of NanoGlo Luciferase substrate was added to the reaction, and reactions were read on a Molecular Devices Spectra Max i3 plate reader. […] Images were analyzed using the Nikon NIS software.

T1 sequence (P0AFA2 other isoform, or with tags, fused parts or gaps V366A/T450I): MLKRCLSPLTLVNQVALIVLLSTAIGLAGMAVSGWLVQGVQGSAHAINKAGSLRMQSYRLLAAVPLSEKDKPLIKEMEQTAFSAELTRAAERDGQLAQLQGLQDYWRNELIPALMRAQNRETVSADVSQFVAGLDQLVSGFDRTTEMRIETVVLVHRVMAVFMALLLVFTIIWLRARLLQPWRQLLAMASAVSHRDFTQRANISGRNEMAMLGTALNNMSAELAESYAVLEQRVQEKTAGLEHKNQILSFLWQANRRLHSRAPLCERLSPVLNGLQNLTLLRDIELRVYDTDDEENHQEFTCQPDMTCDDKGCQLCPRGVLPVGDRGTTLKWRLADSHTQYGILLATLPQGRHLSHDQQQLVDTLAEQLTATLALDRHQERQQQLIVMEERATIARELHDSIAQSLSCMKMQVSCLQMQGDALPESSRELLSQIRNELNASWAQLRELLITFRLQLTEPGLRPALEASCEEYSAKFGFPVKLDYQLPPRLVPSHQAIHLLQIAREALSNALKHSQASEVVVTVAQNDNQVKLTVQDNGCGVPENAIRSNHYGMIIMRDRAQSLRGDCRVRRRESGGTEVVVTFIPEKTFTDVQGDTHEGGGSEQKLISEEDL

B1: Proteinase K: protease added to the outside of vesicles (protein, UniProt P06873 106-384, looked up)
Proteinase K: AAQTNAPWGLARISSTSPGTSTYYYDESAGQGSCVYVIDTGIEASHPEFEGRAQMVKTYYYSSRDGNGHGTHCAGTVGSRTYGVAKKTQLFGVKVLDDNGSGQYSTIIAGMDFVASDKNNRNCPKGVVASLSLGGGYSSSVNSAAARLQSSGVMVAVAAGNNNADARNYSPASEPSVCTVGASDRYDRRSSFSNYGSVLDIFGPGTSILSTWIGGSTRSISGTSMATPHVAGLAAYLMTLGKTTAASACRYIADTANKGDLSNIPFGTVNLLAYNNYQA
Q: With B1 as the molecule, how does the “effect on encapsulated TCS signaling when added outside of vesicles” value read?
A: Its value is “signaling was inhibited; also recorded: is inhibited”.
